For the test, the target named is T1, recombinant Bri2 protein covering residues 113 to 231 comprising the BRICHOS domain (human, UniProt Q9Y287-1 113-231).
T1 sequence (looked up): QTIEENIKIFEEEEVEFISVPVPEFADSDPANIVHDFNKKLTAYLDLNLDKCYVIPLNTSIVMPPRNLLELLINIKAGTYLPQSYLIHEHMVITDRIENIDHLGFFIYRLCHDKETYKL
Briefly: immuno-electron microscopy.

B1: islet amyloid polypeptide IAPP 1–37 (peptide, UniProt P10997 34-70, looked up)
peptide: KCNTATCATQRLANFLVHSSNNFGAILSSTNVGSNTY
With B1, the binding result is “binds”.

For the origin of these results see publication PMC5866560 (Proceedings of the National Academy of Sciences of the …, 2018).
